From patent US20150087055A1, “ANALOG AND MIXED-SIGNAL COMPUTATION AND CIRCUITS IN LIVING CELLS” (MASSACHUSETTS INSTITUTE OF TECHNOLOGY, priority 2012, published 2015)

System: Plux promoter
Experiment: LuxR/Plux circuit characterization by flow cytometry (AHL transfer functions)
Format: cell-based, E. coli
Details: no AHL, IPTG=10 mM, GFP, MG1655 Pro cells (FIG. 19C)
Experimental: Overnight cultures of E. coli strains were grown from glycerol freezer stocks at 37° C. 300 rpm in 3 mL of Luria-Bertani (LB)-Miller medium (Fisher #BP1426-2), with appropriate antibiotics: carbenicillin (50 μg/ml), kanamycin (30 μg/ml), chloramphenicol (25 μg/ml). The inducers used were arabinose, isopropyl-β-D-1-thiogalactopyranoside, and AHL 3OC6HSL (Sigma-Aldrich #K3007-10MG). Where appropriate, COPYCONTROL^24 from Epicentre (Madison, Wis.) was added to overnight cultures at 1× active concentration. Overnight cultures were diluted 1:100 into 3 mL fresh LB and antibiotics and were incubated at 37° C. 300 rpm for 20 minutes. […]
Cells were then diluted 4-fold into a new 96-well plate containing fresh 1×PBS and immediately assayed using a BD LSRFORTESSA-HTS. At least 50,000 events were recorded for all data, which was then gated by forward scatter and side scatter using CYFLOGIC v.1.2.1 software (CyFlo, Turku, Finland). The geometric means of the gated fluorescence distributions were calculated by Matlab. Fluorescence values are based on geometric means of flow cytometry populations from three experiments and the error bars represent standard errors of the mean.
For each experiment, fluorescence readings were taken on a BioTek Synergy H1 Microplate reader using BioTek Gen5 software to determine the minimum and maximum expression level for cultures in each 96-well plate. […]

B1: LuxR: quorum-sensing transcriptional activator induced by AHL, activates promoter Plux (protein, UniProt P12746 1-250, looked up)
Transcriptional activator …: MKNINADDTYRIINKIKACRSNNDINQCLSDMTKMVHCEYYLLAIIYPHSMVKSDISILDNYPKKWRQYYDDANLIKYDPIVDYSNSNHSPINWNIFENNAVNKKSPNVIKEAKTSGLITGFSFPIHTANNGFGMLSFAHSEKDNYIDSLFLHACMNIPLIVPSLVDNYRKINIANNKSNNDLTKREKECLAWACEGKSSWDISKILGCSERTVTFHLTNAQMKLNTTNRCQSISKAILTGAIDCPYFKN
**Q.** How did the “repression of the Plux promoter in the absence of AHL” value turn out when B1 was run?
**A.** no repression
